Measured values reported in paper PMC2928020 (The Journal of Cell Biology, 2010).
Where no end group is shown, it is not given here. The star is where a group is joined. FITC = O=C1OC2(c3ccc(O)cc3Oc3cc(O)ccc32)c2ccc(NC(=S)*)cc21

Target: SNX27 PDZ domain, wild type (residues 39-131 of rat SNX27) (rat, UniProt Q8K4V4 39-131)
Experiment: fluorescence polarisation

- Kd: 17 ± 1.2 µM
Binder: {FITC}-TNDSLL [FITC-labeled peptide corresponding to the C-terminal six residues of the β2AR (TNDSLL)]
